B1: Azoarcus group I ribozyme (parent)
chain: GUGCCUUGCGCCGGGAAACCACGCAAGGGAUGGUGUCAAAUUCGGCGAAACCUAAGCGCCCGCCCGGGCGUAUGGCAACGCCGAGCCAAGCUUCGGCGCCUGCGCCGAUGAAGGUGUAGAGACUAGACGGCACCCACCUAAGGCAAACGCUAUGGUGAAGGCAUAGUCCAGGGAGUGGCGAAAGUCACACAAACCGG

Variants of: B1
Test: reverse-splicing fitness (ratio to wild type); higher = more active; in vitro selection; Mg2+ level not given
Outline: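 An in vitro group I ribozyme library with randomized positions was T7-transcribed and gel-purified. In triplicate, 10 pmol RNA in EPPS pH 7.5 was reacted with 50 pmoles of a 30-nt RNA substrate for 1 h at 37 °C across several added MgCl2 levels (1–48 mM), then stopped with EDTA. Products were reverse transcribed from a substrate-complementary primer, PCR-amplified and sequenced (HiSeq 4000). Fitness is a variant's read proportion after selection over that before, normalised to wild type.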

First: C82G A111C A120U C150G C169G U176A
Second: C82G A111C A120U C150G C169G U176G
The reverse-splicing fitness of the first is higher: 0.0049 for the first, 0.00302 for the second.

Compared with C82G A111C A120U C150G C169G U176C, C82G A111C A145G C150G C169U is higher in reverse-splicing fitness: 0.00379 for the first, 0.0089 for the second.

First: C82G A111C A145G C150G C169G
Second: C82G A111C A145G C150G C169A
The reverse-splicing fitness of the first is lower: 0.00707 for the first, 0.0091 for the second.

First: C82G A111C A145U C150A U176C
Second: C82G A111C A145U C150A U176G
The reverse-splicing fitness of the first is higher: 0.0248 for the first, 0.0105 for the second.

Going from C82G A111C A145U C150A U176A to C82G A111C A145G C169U, the reverse-splicing fitness falls from 0.0202 to 0.0141.

Going from C82G A111C A145G C169G to C82G A111C A145G C169A, the reverse-splicing fitness rises from 0.00916 to 0.0104.

Compared with C82G A111C A145C C150A C169G U176A, C82G A111C A145C C150A C169G U176G is lower in reverse-splicing fitness: 0.0237 for the first, 0.00878 for the second.

Compared with C82G A111C A145C C150A C169G U176C, C82G A111C A145U C150U C169A U176A is lower in reverse-splicing fitness: 0.0224 for the first, 0.0121 for the second.

First: C82G A111C A145U C150U C169A U176G
Second: C82G A111C A145U C150U C169A U176C
The reverse-splicing fitness of the first is lower: 0.00772 for the first, 0.0132 for the second.

Compared with C82G A111C A120U A145U C150U C169A U176C, C82G A111C A120U A145U C150U C169A U176A is lower in reverse-splicing fitness: 0.00293 for the first, 0.00282 for the second.

Going from C82G A111C A120U A145U C150U C169A U176G to C82G A111C A145C U176A, the reverse-splicing fitness rises from 0.00223 to 0.126.

First: C82G A111C A145C U176G
Second: C82G A111C A145C U176C
The reverse-splicing fitness of the first is lower: 0.0504 for the first, 0.137 for the second.

Going from C82G A111C A120U A145U to C82G A111C A120U A145U C150G C169A U176A, the reverse-splicing fitness falls from 0.0481 to 0.0036.

Compared with C82G A111C A120U A145U C150G C169A U176C, C82G A111C A120U A145U C150G C169A U176G is lower in reverse-splicing fitness: 0.00308 for the first, 0.00276 for the second.

Going from C82G A111C A120U A145U C150G C169G U176A to C82G A111C A120U A145U C150G C169G U176G, the reverse-splicing fitness falls from 0.00287 to 0.00242.

Compared with C82G A111C A120U A145U C150G C169G U176C, C82G A111C A120U A145G C150U U176G is higher in reverse-splicing fitness: 0.00317 for the first, 0.00399 for the second.

First: C82G A111C A120U A145G C150U U176A
Second: C82G A111C A120U A145G C150U U176C
The reverse-splicing fitness of the first is lower: 0.0115 for the first, 0.0162 for the second.

First: C82G A111C A145U C150G C169G U176C
Second: C82G A111C A145U C150G C169G U176G
The reverse-splicing fitness of the first is lower: 0.00714 for the first, 0.00802 for the second.

First: C82G A111C A145U C150G C169G U176A
Second: C82G A111C A120U A145U C169U U176A
The reverse-splicing fitness of the first is higher: 0.00806 for the first, 0.00319 for the second.

Going from C82G A111C A120U A145U C169U U176G to C82G A111C A120U A145U C169U U176C, the reverse-splicing fitness rises from 0.00187 to 0.00318.

Going from C82G A111C A145G C150U C169A U176A to C82G A111C A145G C150U C169A U176G, the reverse-splicing fitness falls from 0.0153 to 0.00789.

First: C82G A111C A145G C150U C169A U176C
Second: C82G A111C A145U C150G C169A U176A
The reverse-splicing fitness of the first is higher: 0.0146 for the first, 0.00956 for the second.

Going from C82G A111C A145U C150G C169A U176G to C82G A111C A145U C150G C169A U176C, the reverse-splicing fitness rises from 0.00734 to 0.0126.

Compared with C82G A111C A120U C150G C169U U176A, C82G A111C A120U C150G C169U U176C is higher in reverse-splicing fitness: 0.00494 for the first, 0.00676 for the second.

Compared with C82G A111C A120U C150G C169U U176G, C82G A111C A120U A145U C150G U176A is higher in reverse-splicing fitness: 0.00294 for the first, 0.00411 for the second.

Going from C82G A111C A120U A145U C150G U176C to C82G A111C A120U A145U C150G U176G, the reverse-splicing fitness falls from 0.0062 to 0.00265.

Going from C82G A111C A120U A145U C150U C169A to C82G A111C A120U A145U C150U C169G, the reverse-splicing fitness rises from 0.00298 to 0.00403.

First: C82G A111C A120U A145U C150U C169U
Second: C82G A111C A145C C150A C169A
The reverse-splicing fitness of the first is lower: 0.00397 for the first, 0.00842 for the second.

Going from C82G A111C A145C C150A C169U to C82G A111C A145C C150A C169G, the reverse-splicing fitness falls from 0.00955 to 0.00856.

Compared with C82G A111C A120U A145G C169A U176G, C82G A111C A120U A145G C169A U176A is higher in reverse-splicing fitness: 0.00218 for the first, 0.00424 for the second.

Compared with C82G A111C A120U A145G C169A U176C, C82G A111C A120U C169A U176A is higher in reverse-splicing fitness: 0.00311 for the first, 0.00425 for the second.

First: C82G A111C A120U C169A U176C
Second: C82G A111C A120U C169A U176G
The reverse-splicing fitness of the first is higher: 0.00457 for the first, 0.00246 for the second.

Compared with C82G A111C A120U C150U C169A U176C, C82G A111C A120U C150U C169A U176G is lower in reverse-splicing fitness: 0.00319 for the first, 0.00243 for the second.

First: C82G A111C A120U C150U C169A U176A
Second: C82G A111C A145U C169G
The reverse-splicing fitness of the first is lower: 0.00515 for the first, 0.0102 for the second.

Going from C82G A111C A145U C169U to C82G A111C A145U C169A, the reverse-splicing fitness falls from 0.0133 to 0.00813.

Going from C82G A111C A145U C169A U176A to C82G A111C A145U C169A U176G, the reverse-splicing fitness falls from 0.0149 to 0.00775.

Going from C82G A111C A145U C169A U176C to C82G A111C A120U A145U C150A C169U U176A, the reverse-splicing fitness falls from 0.0153 to 0.00302.

Going from C82G A111C A120U A145U C150A C169U U176C to C82G A111C A120U A145U C150A C169U U176G, the reverse-splicing fitness falls from 0.00353 to 0.00243.

Compared with C82G A111C A120U C150G C169G, C82G A111C A120U C150G C169U is lower in reverse-splicing fitness: 0.00669 for the first, 0.00609 for the second.

Going from C82G A111C A120U C150G C169A to C82G A111C A145G C150A C169G U176G, the reverse-splicing fitness rises from 0.00763 to 0.00825.

First: C82G A111C A145G C150A C169G U176A
Second: C82G A111C A145G C150A C169G U176C
The reverse-splicing fitness of the first is lower: 0.0149 for the first, 0.0256 for the second.

Work on C82G A111C A145U C150A yielded a reverse-splicing fitness of 0.0253.

From the RNAGym collection of RNA variant scans (doi:10.1093/molbev/msab373)
